Experimental data from PMC9122495, “Seipin transmembrane segments critically function in triglyceride nucleation and lipid droplet budding from the membrane” (eLife, 2022).

Target: the molecule itself
Test: cryo-EM structure; LDAF1-FLAG/seipin (1–310) sample in PMAL C8, 25 mM HEPES pH 7.4, 150 mM NaCl, 2 mg/ml, PEGylated with MS(PEG)12; 3D classification without symmetry; one class with the luminal domains used; TM region at low resolution

B1: seipin (1–310) (domain or fragment, human, UniProt Q96G97 1-310, looked up)
chain: MVNDPPVPALLWAQEVGQVLAGRARRLLLQFGVLFCTILLLLWVSVFLYGSFYYSYMPTVSHLSPVHFYYRTDCDSSTTSLCSFPVANVSLTKGGRDRVLMYGQPYRVTLELELPESPVNQDLGMFLVTISCYTRGGRIISTSSRSVMLHYRSDLLQMLDTLVFSSLLLFGFAEQKQLLEVELYADYRENSYVPTTGAIIEIHSKRIQLYGAYLRIHAHFTGLRYLLYNFPMTCAFIGVASNFTFLSVIVLFSYMQWVWGGIWPRHRFSLQVNIRKRDNSRKEVQRRISAHQPGPEGQEESTPQSDVTED
notes: seipin, human, residues 1-310; No tag is stated for seipin; It was purified through the FLAG tag of co-expressed LDAF1; The sample was treated with MS(PEG)12 methyl-PEG-NHS-ester before cryo-EM; The introduction calls human seipin an undecamer, citing other work; also called human seipin
**Q.** Does B1 bind?
**A.** binds
